Tests used:
[1] = target: AtPCO4 Y73R (Arabidopsis thaliana)
[2] = target: AtPCO4 Y183F (Arabidopsis thaliana)
[3] = target: AtPCO4 C173A (Arabidopsis thaliana); assay: other fluorescence titration
[4] = target: AtPCO4 Y73R (Arabidopsis thaliana); assay: other fluorescence titration
[5] = target: AtPCO4 D177E (Arabidopsis thaliana); assay: other fluorescence titration
[6] = target: AtPCO4 Y183F (Arabidopsis thaliana); assay: other fluorescence titration
[7] = target: AtPCO4 V105G (Arabidopsis thaliana)
[8] = target: AtPCO4 S107L (Arabidopsis thaliana)

catalytic constant (kcat) of RAP2.12 (2-15) oxidation [1]: 0.0167 s⁻¹
catalytic constant (kcat) of RAP2.12 (2-15) oxidation [2]: 0.5 s⁻¹
Kd [3]: 250 µM
Kd [4]: 3000 µM
Kd [5]: 150 µM
Kd [6]: 3500 µM
Michaelis-Menten constant (KM) for RAP2.12 (2-15) in the activity assay [7]: 97 µM
Michaelis-Menten constant (KM) for RAP2.12 (2-15) in the activity assay [8]: 99 µM
Substance: RAP2.12_(2-15) peptide substrate (from UniProt Q9SSA8 2-15)
